This note sets out measurements from article PMC10781750, “Structural basis of antiphage immunity generated by a prokaryotic Argonaute-associated SPARSA system” (Nature Communications, 2024).

The target of this assay is T1, GsSir2 (Sir2-APAZ protein of the SPARSA system from Geobacter sulfurreducens) (Geobacter sulfurreducens, UniProt Q74DF6 1-586).
T1 construct: GsSir2 of Geobacter sulfurreducens, NP_952413.1; That the His tag sits on GsSir2, the first gene of Sir2-RBS-pAgo, is surmised; source: E. coli BL21(DE3), coexpressed with pAgo, purified (Ni-NTA, Superdex 200 SEC)
T1 sequence: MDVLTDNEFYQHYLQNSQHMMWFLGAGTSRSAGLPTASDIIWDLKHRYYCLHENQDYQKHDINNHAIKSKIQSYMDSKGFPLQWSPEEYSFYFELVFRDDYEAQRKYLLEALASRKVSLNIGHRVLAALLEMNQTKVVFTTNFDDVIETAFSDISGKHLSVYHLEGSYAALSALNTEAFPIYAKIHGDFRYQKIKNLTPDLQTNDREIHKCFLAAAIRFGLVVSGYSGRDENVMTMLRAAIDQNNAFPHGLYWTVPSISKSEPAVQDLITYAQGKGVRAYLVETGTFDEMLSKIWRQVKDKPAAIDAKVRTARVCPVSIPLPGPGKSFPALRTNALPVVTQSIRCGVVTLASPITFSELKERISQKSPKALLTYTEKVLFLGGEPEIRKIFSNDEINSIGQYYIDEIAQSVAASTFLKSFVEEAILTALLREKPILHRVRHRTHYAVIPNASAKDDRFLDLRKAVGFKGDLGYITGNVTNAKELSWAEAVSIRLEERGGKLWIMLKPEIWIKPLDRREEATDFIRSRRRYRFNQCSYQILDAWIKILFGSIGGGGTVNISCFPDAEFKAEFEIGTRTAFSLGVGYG
Put plainly: cryo-EM structure; SPARSA heterodimer (GsSir2 + pAgo) coexpressed and co-purified, endogenous NAD+ bound, no nucleic acids; 2 mg/mL; 3.6 Å. Particulars: both partners purified.

B1: pAgo (short prokaryotic Argonaute of the SPARSA system from Geobacter sulfurreducens) (natural protein)
chain: not shown
notes: short pAgo of Geobacter sulfurreducens, NP_952414.1; MID domain residues 1-218, PIWI domain residues 219-473; no tag of its own is described; also called short pAgo; source: E. coli BL21(DE3), coexpressed with GsSir2, purified (Ni-NTA, Superdex 200 SEC)
For orientation: stoichiometry N means the number of molecules, sites or subunits per partner or assembly. For the molecule B1, the “stoichiometry N” value amounted to 1.
